# Assay results taken from the nanobody polyreactivity screen of Harvey et al. (2022).
# Experiment: yeast display, Sf9 membrane polyspecificity reagent, FACS + sequencing; frameworks hold sequencing errors
# Method in brief: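 Genes from sorted yeast were amplified by colony PCR, read by MiSeq 2 × 250 sequencing and filtered on CDR length. These cells carried a synthetic nanobody library in Saccharomyces cerevisiae BJ5465 and were sorted by FACS into low and high (top ~1%) gates on anti-HA and streptavidin fluorescence. Polyreactivity is labelled according to the gate of origin.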
row,Sequence,polyreactivity (PSR sort gate)
1,QVQLVESGGGLVQAGGSLRLSSAASGNIFYTNTMGWYRQAPGKERELVAAITSGGTTYYADSVKGRFTISRDNAKNTVYLQMNSLKPEDTAVYYCAVRSSKWSWIYYYWGQGTQVTVSS,high polyreactivity
2,QVQLVESGGGLVQAGGSLRLSSAASGRIFDDNAMGWYRQAPGKERELVAAITGPDDSTDYADSVKGRFTISRDNAKNTVYLQMNSLKPEDTAVYYCAKDAGYWYYWNGYWGQGTQVTVSS,high polyreactivity
3,QVQLVESGGGLVQAGGSLRLSSAASGRIFGRYAMGWYRQAPGKERELVDAITCTGGTTYYADSVKGRFTISRDNAKNTVYLQMNSLKPEDTAVYYCAARQGYGIYGDYYYWGQGTHVTVSS,high polyreactivity
4,QVQLVESGGGLVQAGGSLRLSSAASGRIFIDYAMGWYRQAPGTDRELVATITSSGGSTYYADSVKGRFTISRDNAKNTVYIQMTSLKPVDTAVYYCNAKERYYFGNYKYGYWGQGTQVTVSS,low polyreactivity
5,QVQLVESGGGLVQAGGSLRLSSAASGRIFKDNAMGWYRQAPGKERELVAAISSGASTSYADSVKGRFTISRDNAKNTVYLQMNSLKPEDTAVYYCNRGGYLYYPGWLFDYWGQGTQVTVSS,low polyreactivity
6,QVQLVESGGGLVQAGGSLRLSSAASGRIFNIYAMGWYRQAPGKERELVARITSGGRTNYADSVKGRFTISRDNAKNTVYLQRNSLKPEDTAVYYCAARTYGQRGDYWGQGTQVTVSS,high polyreactivity
7,QVQLVESGGGLVQAGGSLRLSSAASGRIFPYYAMGWYRQAPGKERELVAAITSSGGSTYYADSVKGRFTISRDTAKNTVYFQMNSLKPEDSAVYYCAGTSPYDDYPYTRGIYAYGYWGQCTQVTVSS,low polyreactivity
8,QVQLVESGGGLVQAGGSLRLSSAASGRIFQKYAMGWYRPAPGKERELVAAISSGDSTYADSVKGRFTISRDNAKNTVYLQMNSLKPEDTAVYYCAADDRWDYDYWGQGTQGTVSS,low polyreactivity
9,QVQLVESGGGLVQAGGSLRLSSAASGRIFRGNVMGWYRQAPGKERELVAVIRSSSGRTYYADSVKGRFTISRDNAKNTVYLQMNSLKPEDTAVYDCAAKSVWGQGTQVTVSS,high polyreactivity
10,QVQLVESGGGLVQAGGSLRLSSAASGRIFRHYAMGWYRQAPGKERELVASITRGDNTYYADSVKGRFTISRDNAKNTVYLQMNSLKPEDSAVYYCAAVFYSYSSASEYYYWGQGTQVTVSS,high polyreactivity
11,QVQLVESGGGLVQAGGSLRLSSAASGRIFSYNAMGWYRQAPGKERELVASISYSGTSTYYADSVKGRFTISRDNAKNTVYLQMNRLKPEDTAVYYCAALSRRRFGYWGQGTQVTVSS,high polyreactivity
12,QVQLVESGGGLVQAGGSLRLSSAASGRIFTYYAMGWYRQAPGKERELVATISRRGGSTYYADSVKGRFTISRDNAKNTVYLQMNSLKPEDTAVYYCNRTYYGYDYWGHGTQVTVSS,high polyreactivity
13,QVQLVESGGGLVQAGGSLRLSSAASGRIFWFNAMGWYRQAPGKEREWVATISSGDSTNYADSVKGRFTISRDNAKNTVYLQMNSLKPDDTAVYYCNARVSHVQVGFDSWGQCTQVTVSS,low polyreactivity
14,QVQLVESGGGLVQAGGSLRLSSAASGRIFYGYAMGWYRQAPGKERELVAAISWSGGSTYYADSVKWRFTISRDNAKNTVYLQMNSLKPEDTAVYYCARRDRGGYKYDYWGQGTQVTVSS,high polyreactivity
15,QVQLVESGGGLVQAGGSLRLSSAASGRIFYNYAMGWYRQSPGKERELVAAISGSGGSTYYADSVKGRFTISRDNAKNTVYLQMNSLKPEDTAVFYCSTSGPQYYSRNFDYWGQGTQVTVSS,low polyreactivity
16,QVQLVESGGGLVQAGGSLRLSSAASGRIFYRNAMGWCRQAPGKERELVASITSAGRRYYADSVKGRFTISRDNAKNTVYLQMNSLKPEDTAVYYCAVRVAVLLNLYGYWGQGTQVTVSS,low polyreactivity

row,Sequence,polyreactivity (PSR sort gate)
1,QVQLVESGGGLVQAGGSLRLSSAASGRIFYYNAMGWYSQAPGKERELVAAITRGGSTYYADSVKGRFTISRDNAKNTVYLQMNSLKPEDTAVYYCAAYLDYWSYLNGQYDYWGQGTQVTVSS,high polyreactivity
2,QVQLVESGGGLVQAGGSLRLSSAASGRIIDDNTMGWYRQAPGKERELVAAISVSGGRTYYADSVKGRFTISRDNAKNTVYLQMNSLNPEDTAVYFCAAARGGEYWGQGTQVTVSS,high polyreactivity
3,QVQLVESGGGLVQAGGSLRLSSAASGRTFNIYAKGWYRHAPGKERELVAAITWRSGSTYDADSVKGRFTISRDNAKNTVYLQMNSLKPEDTAVYYCAAEQWSSVPEFDYWGQGTQVTVSS,high polyreactivity
4,QVQLVESGGGLVQAGGSLRLSSAASGRTFRHYALGWSRQAPGKERELVAVISWRGTGTYYADSVKGRFTISRDNAKNTVYLQMTSLKPEDTSVYYCATVWGLGYRMNYWGQGTQVTVSS,high polyreactivity
5,QVQLVESGGGLVQAGGSLRLSSAASGRTFRYYAMGWYRQAPGKERELVASISDGGSTNYADSVKGRFTISRDNAKNTVYLQMNSLKPEDTAVYYCAADGWWQYDYWGQGTQVTVSS,low polyreactivity
6,QVQLVESGGGLVQAGGSLRLSSAASGRTFSSYAMGWYRQAPGKERELVAAINWSGASTYYADSVKGRFTISRDNAKNTVYLQMNSLKPEDTAVYYCAKSLYVGKYWQIRSSVDYWGQGTQVTVSS,low polyreactivity
7,QVQLVESGGGLVQAGGSLRLSSAASGRTFYDYAMGWYRQAPGKERELVAAITYSGGSTFYADSVKGRFTISRDNAKNTVYLQMNSLTPEDTAVYYCAAEVLRLGGAAEYDYCGQGTQVTVSS,low polyreactivity
8,QVQLVESGGGLVQAGGSLRLSSAASGRTFYRHAMGWYRQAPGKERELVAASTRSGSTNYADSVKGRFTISRDNAKNTVYLQMNSLKPEDTADYYCAAKFFRNTYSYGMDYWGQGTQVTVSS,high polyreactivity
9,QVQLVESGGGLVQAGGSLRLSSAASGRTFYRNAIGWYRQAPGKERELVAAISSGSTTYYADSVKGRFTISRDNAKNTVYLQMNSLKPEDTAVYYCATTLRQYKPPSGRDYWGQGTQVTVSS,low polyreactivity
10,QVQLVESGGGLVQAGGSLRLSSAASGRTFYSNAMGWYRQAPGKERELVAAITRGASTKYADSVKGRFTISRDNAKNSVYLQMNSLKPEDTAVYYCDTARYPRYIYDYWGQGTQVTVSS,low polyreactivity
11,QVQLVESGGGLVQAGGSLRLSSAASGRTFYWYAMGWYRQAPGKQRELVASISIDGRTYYADSVKGRFTISRDNAKNNVYLQMNSLKPEDTAVYYCNVVRYYPYRPTTKRGGGYWGQGTQVSVSS,high polyreactivity
12,QVQLVESGGGLVQAGGSLRLSSAASGRTFYYYAFGWYRQAPGKERELVARITAICGRTYYADSVKGRFTISLDNAKNTVYLQMNCLKPEDTAVYYCAAASWPAYSYYPFYYWGQGSQVTVSS,high polyreactivity
13,QVQLVESGGGLVQAGGSLRLSSAASGRTISNYDMGWYRQAPGKERELVAAITYSGGSTYYADSVKGRFTISRDNAKNTVYLQMNSLKPEDTAVYYCAKISGTYYRYDYWGQGTQVTVSS,high polyreactivity
14,QVQLVESGGGLVQAGGSLRLSSAASGSIFDPYAMGWYRQAPGKERELVAGISFSGGRTYYADSVKGRFTISRDNAKNTVYLQMNSLKPEDTAVYYCNKLLTQGAYPYYYWGQGTQVTVSS,high polyreactivity
15,QVQLVESGGGLVQAGGSLRLSSAASGSIFGANAIGWYRQAPGKERELVAAISRRGRSTYYADSVKGRFTISRDNAKYTVYLQLNSLKPEDTAVYYSAAKRPQYYVQYGYWGQGTQVTVSS,high polyreactivity
16,QVQLVESGGGLVQAGGSLRLSSAASGSIFGDYVMGWYRPAPGKERELVAAINRGGSTYYADSVKGRFTISRDNAKNTVYLQMNSLKPEDTAVYDCAKDYHNYPSFGVDYCGQGTQVTVSS,low polyreactivity
